Tests used:
human alpha-thrombin [1] = biological target: T1, human alpha-thrombin (Homo sapiens, UniProt P00734;P00734 328-363;364-622); assay: blot with protected Apt-AuNP probe and gold enhancement; thrombin in 10-fold diluted human serum on PVDF; protection DNA 1 uM before 10x dilution; as low as 30 ng detected; binding buffer 100 mM NaCl, 20 mM Tris-HCl, 2 mM MgCl2, 5 mM KCl, 1 mM CaCl2, 0.02% Tween 20; pH and temperature of binding not stated
human alpha-thrombin [2] = biological target: T1, human alpha-thrombin; assay: blot with Apt-AuNP probe and gold enhancement; thrombin in 10-fold diluted human serum on PVDF; strong background from serum proteins; binding buffer 100 mM NaCl, 20 mM Tris-HCl, 2 mM MgCl2, 5 mM KCl, 1 mM CaCl2, 0.02% Tween 20; pH and temperature of binding not stated

| Binder | binding result (human alpha-thrombin [1]) | binding result (human alpha-thrombin [2]) |
| --- | --- | --- |
| thrombin 15-mer aptamer protected with PolyA-Oligo10 on AuNP (mixed, 5'-SH-(CH2)6 thiol on strand 1) DNA: GGTTGGTGTGGTTGG ?: AAAAAAAAAAAAAAAAAAAACCAACCACAC | binds |  |
| GGTTGGTGTGGTTGG (ssDNA, 5'-SH-(CH2)6 thiol) [thrombin 15-mer aptamer on AuNP (Apt-AuNP)] |  | binds |

— PMC5372222
